These results are taken from patent publication US20170042969A1 (JULIUS MAXIMILIANS UNIVERSIT T W RZBURG, published 2017).

The target in the assay is ornithine decarboxylase (ODC) present in Xenopus laevis oocytes. In words: cell-based or functional assay.

Take QEP [QEP (glutamine-glutamic acid-proline tripeptide)]: the “IC50 for down-regulation of hSGLT1 in oocytes at about 0.25 mM intracellular AMG” value was 0.0002 nM; the “IC50 for inhibition of SGLT1-mediated AMG uptake in oocytes without injection of AMG” value was 7.9 nM; the “IC50 without injection of AMG, against QSP” value is ~40 times; the “increase of affinity at ~0.25 mM intracellular AMG against low intracellular AMG” value was > 15000 fold.

B1: hRS1-Reg (regulatory domain of human RS1, amino acids 16-98 of hRS1), wildtype (other, not shown: small tags and cut ends)
chain: SSGQSPDVGNPMSLARSVSASVCPIKPSDSDRIEPKAVKALKASAEFQLNSEKKEHLSLQDLSDHASSADHAPTDQSPAMPMQ
In the case of B1, the “IC50 for down-regulation of hSGLT1-mediated AMG uptake in oocytes (intracellular AMG <10 µM)” value was found to be 71 nM and the “change of affinity for down-regulation of hSGLT1 when intracellular AMG is raised to 250 µM” value was 8 fold.
